For 167 variants, self-cleavage results are on record in the RNAGym collection of RNA variant scans (doi:10.1093/nar/gkz1192).

B1: CPEB3 Ribozyme (parent)
chain: UAACAGGGGGCCACAGCAGAAGCGUUCACGUCGCAGCCCCUGUCAGAUUCUGGUGAAUCUGCGAAUUCUGCUGUAUAUCUC

Variants of B1 are the subject of the data set. In words: self-cleavage, relative activity (ratio to wild type); higher = more cleavage; in vitro, sequencing. In a few lines: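 Relative activity compares each variant's cleaved/total read fraction with that of the unmutated ribozyme. To get these fractions, barcoded CPEB3 ribozyme libraries from rounds of error-prone PCR were transcribed with T7 RNA polymerase for 5 hours at 37°C and then given 15 min of DNase I treatment before EDTA was added. The RNAs were reverse transcribed with template switching and sequenced on Illumina, and DNA sequencing linked barcodes to variants. A minimum of 5 reads applied, and three batches were averaged.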
On to A5C U41A, for which the self-cleavage worked out at 0.28.

As for A5C U41G, the self-cleavage was found to be 0.35.

Take C4G U69C: the self-cleavage was found to be 0.95.

Regarding C4A U78C, the self-cleavage was determined as 0.74.

As for C4G U72A, the self-cleavage was determined as 1.13.

As to C4U G9U, the self-cleavage was determined as 0.17.

For the variant A5C U69A, the self-cleavage was found to be 0.67.

On to A5C U69C, for which the self-cleavage was found to be 0.59.

Take A5C U69G: the self-cleavage amounted to 0.67.

For C4U C50A, the self-cleavage was 1.17.

For the variant C4G U31C, the self-cleavage was 1.17.

A5G A28G: the self-cleavage worked out at 0.48.

A5G A28C: the self-cleavage worked out at 0.61.

As to A5G A28U, the self-cleavage came out at 0.55.

As to A3U U72A, the self-cleavage came out at 1.

For the variant A3U U72C, the self-cleavage came out at 1.12.

For the variant A3U U72G, the self-cleavage came to 1.09.

As to A5C U51C, the self-cleavage was found to be 0.6.

On to C4U A35G, for which the self-cleavage was determined as 1.29.

For the variant C4U A35U, the self-cleavage was found to be 0.81.

In the case of A5C C62U, the self-cleavage was 0.13.

Take C4A U51C: the self-cleavage is 1.14.

Consider A5G C29U, for which the self-cleavage was found to be 0.26.

On to A5G C29G, for which the self-cleavage was determined as 0.57.

Consider C4A A21G, for which the self-cleavage is 0.92.

As to C4U A20C, the self-cleavage came to 0.21.

For the variant C4U A20G, the self-cleavage came to 0.81.

In the case of C4U A20U, the self-cleavage is 0.42.

For A5G G24C, the self-cleavage was found to be 0.89.

Take A5G G24U: the self-cleavage amounted to 0.24.

As for A5G G10U, the self-cleavage came to 0.39.

Regarding C4A G30A, the self-cleavage turned out to be 0.39.

Regarding C4A C44U, the self-cleavage is 0.33.

Consider A5G C40G, for which the self-cleavage amounted to 0.22.

As for A5G C40A, the self-cleavage was 0.26.

As for A5G C40U, the self-cleavage was 0.27.

Turning to A5G C79U, the self-cleavage turned out to be 0.92.

Regarding A5G C79A, the self-cleavage worked out at 1.01.

As to C4U U51A, the self-cleavage was 0.98.

With C4U U51C, the self-cleavage is 1.16.

With A5C U58C, the self-cleavage was determined as 0.58.

Take A5C U58A: the self-cleavage was found to be 0.49.

For the variant A5G G42A, the self-cleavage stood at 0.4.

For the variant A5G G42C, the self-cleavage worked out at 0.49.

As to C4U U74C, the self-cleavage was 1.18.

C4G U26C: the self-cleavage stood at 0.96.

As to C4G U26A, the self-cleavage stood at 1.19.

Regarding C4U A47G, the self-cleavage turned out to be 1.15.

On to A5C A21G, for which the self-cleavage amounted to 0.69.

With A5C A21U, the self-cleavage turned out to be 0.36.

Regarding A5C U67A, the self-cleavage is 0.48.

Take A5C U67G: the self-cleavage was determined as 0.27.

For A5C U67C, the self-cleavage came to 0.22.

A5C U80A: the self-cleavage was 1.19.

As for A5C U80C, the self-cleavage came to 1.05.

Consider C4U U26C, for which the self-cleavage came out at 0.88.

Take C4U U26A: the self-cleavage was 1.13.

In the case of A5C A47U, the self-cleavage was determined as 0.53.

As for A5C A47G, the self-cleavage came to 0.78.

On to A5C A28G, for which the self-cleavage was 0.63.

In the case of A5C A28U, the self-cleavage is 1.12.

Turning to A5C U31C, the self-cleavage was determined as 0.8.

A5C U31A: the self-cleavage amounted to 0.75.

Take A5G C27A: the self-cleavage came out at 0.44.

As to A5G C27U, the self-cleavage is 0.13.

In the case of C4U C23G, the self-cleavage was determined as 0.53.

On to A5C G36A, for which the self-cleavage came out at 0.31.

For A5C C37U, the self-cleavage was found to be 0.76.

In the case of A5C C37G, the self-cleavage came out at 0.87.

In the case of A5G A47C, the self-cleavage came out at 0.59.

Regarding A5G A47G, the self-cleavage is 0.65.

As for A5G A47U, the self-cleavage came to 0.34.

As for A5G C12A, the self-cleavage came out at 0.4.

A5G C12U: the self-cleavage is 1.12.

As to C4A U31A, the self-cleavage is 0.88.

Regarding A5C G46U, the self-cleavage amounted to 0.06.

As for C4U C38A, the self-cleavage is 0.54.

As for C4A G16U, the self-cleavage was found to be 0.62.

Take A5G A20U: the self-cleavage was 0.37.

As to A5G A20G, the self-cleavage amounted to 0.54.

A5G A20C: the self-cleavage amounted to 0.58.

C4U G30A: the self-cleavage was 0.22.

For the variant A5C G6U, the self-cleavage was found to be 0.32.

With C4A G10A, the self-cleavage stood at 0.59.

Turning to C4U U67A, the self-cleavage amounted to 0.76.

For the variant C4U U67C, the self-cleavage was determined as 0.42.

As for A5G G6A, the self-cleavage amounted to 0.29.

With A5G G6U, the self-cleavage stood at 0.23.

Regarding A3U U69C, the self-cleavage amounted to 0.69.

For the variant A3U U69A, the self-cleavage came to 0.54.

Consider C4U U76C, for which the self-cleavage came to 1.16.

On to A5C A57G, for which the self-cleavage was 0.9.

As to A5C A57C, the self-cleavage was 0.52.

Consider C4U A65G, for which the self-cleavage is 0.43.

Regarding A5G A75U, the self-cleavage was determined as 0.83.

As for A5G A75G, the self-cleavage is 0.49.

Turning to A5G A75C, the self-cleavage turned out to be 0.57.

On to A5G G7U, for which the self-cleavage turned out to be 0.39.

Take A5G G7C: the self-cleavage came out at 0.5.

Take A5G G7A: the self-cleavage turned out to be 0.6.

For the variant A5C U49C, the self-cleavage worked out at 0.54.

As to A5C A15G, the self-cleavage came to 0.96.

For the variant A5C A15U, the self-cleavage is 0.99.

With A5C A15C, the self-cleavage was 0.81.

In the case of C4U A28U, the self-cleavage came out at 1.08.

In the case of C4U A28G, the self-cleavage came to 1.03.

For A5G G22C, the self-cleavage was found to be 0.34.

Consider A5G G22A, for which the self-cleavage stood at 0.24.

Take C4A U69A: the self-cleavage was 0.68.

As for A5G, the self-cleavage amounted to 0.74.

With A5C, the self-cleavage stood at 0.98.

In the case of A5G G19C, the self-cleavage was determined as 0.41.

In the case of A5G G19U, the self-cleavage is 0.45.

As to A5G G19A, the self-cleavage came out at 0.53.

Turning to C4G U49A, the self-cleavage came out at 0.65.

Regarding A5G G36A, the self-cleavage was determined as 0.29.

For A5G G36U, the self-cleavage stood at 0.72.

For the variant A5G A21U, the self-cleavage came out at 0.33.

On to A5G A21G, for which the self-cleavage turned out to be 0.43.

In the case of A5G A21C, the self-cleavage worked out at 0.39.

C4U G42A: the self-cleavage came to 0.32.

Take C4A A20G: the self-cleavage came to 1.11.

In the case of A5C C23G, the self-cleavage turned out to be 0.18.

For the variant A5G A56U, the self-cleavage is 0.43.

On to A5G A56G, for which the self-cleavage stood at 0.39.

On to A5G A35G, for which the self-cleavage was found to be 1.18.

In the case of A5G A35C, the self-cleavage is 0.85.

Consider A5G A35U, for which the self-cleavage came out at 0.36.

In the case of A5G C38A, the self-cleavage is 0.44.

A5G C38G: the self-cleavage was 0.37.

As for A5G C38U, the self-cleavage was determined as 0.46.

For C4G A57G, the self-cleavage was 0.98.

As to A5C U54C, the self-cleavage was 1.09.

As for A5C U54G, the self-cleavage stood at 0.81.

Consider C4U U58C, for which the self-cleavage was 1.06.

For A5G C23U, the self-cleavage was 0.36.

A5G C23G: the self-cleavage is 0.61.

For A5C C17A, the self-cleavage is 0.19.

For C4U G52A, the self-cleavage was 1.26.

Turning to A5G C50U, the self-cleavage stood at 0.5.

Consider C4U C27U, for which the self-cleavage was 0.56.

As for A5C G63U, the self-cleavage worked out at 0.91.

For A5C G63C, the self-cleavage is 0.95.

Turning to A5G C17U, the self-cleavage worked out at 0.47.

A5G C17A: the self-cleavage was determined as 0.3.

Take C4U C17U: the self-cleavage worked out at 1.05.

As to C4A U67C, the self-cleavage came out at 0.44.

As to C4A U67A, the self-cleavage was found to be 1.

Turning to C4A U74C, the self-cleavage came out at 1.22.

On to A5G C62A, for which the self-cleavage was 0.22.

In the case of A5G C62G, the self-cleavage was 0.14.

Regarding A5G C62U, the self-cleavage was 0.35.

Consider C4U G55U, for which the self-cleavage came to 1.28.

For the variant C4A G8A, the self-cleavage came to 0.47.

On to C4A G22C, for which the self-cleavage turned out to be 0.25.

Turning to A3U U76G, the self-cleavage came to 1.13.

On to C4U A45G, for which the self-cleavage is 1.25.

Turning to C4U A45U, the self-cleavage is 0.47.

A3U U78G: the self-cleavage came out at 1.2.

Turning to A3U U78C, the self-cleavage was found to be 0.9.

For A5G G8A, the self-cleavage came to 0.23.

For A5G G8U, the self-cleavage was found to be 0.46.

On to A5C G10A, for which the self-cleavage came out at 0.09.

With A5G C34G, the self-cleavage came to 0.52.

A5C A18G: the self-cleavage amounted to 0.53.

Turning to C4U A18U, the self-cleavage is 0.73.

In the case of A5C U74C, the self-cleavage amounted to 1.19.
